In patent US20150344570A1 (published 2015):

Biological target: T1, Protein A (UniProt P38507 37-327)
T1 construct: Commercial chromatography resin; also called rProtein A Sepharose Fast Flow (GE Healthcare)
Assay: Protein A column chromatography, stepwise pH elution; eluted fractions analysed by cation exchange chromatography (peak area %)

B1: J142-z72/L180-k (antibody, human IgG4 S228P, kappa)
heavy: QVQLVQSGSELKKPGASVKVSCKASGYTFTDNNMDWVRQAPGQGLEWMGDINTRSGGSIYNEEFQDRVTMTIDKSTGTAYMELSSLRSEDTAVYYCARRRSYGYYHDEWGEGTLVTVSSASTKGPSVFPLAPCSRSTSESTAALGCLVKDYFPEPVTVSWNSGALTSGVHTFPAVLQSSGLYSLSSVVTVPSSSLGTKTYTCNVDHKPSNTKVDKRVESKYGPPCPPCPAPEFLGGPSVFLFPPKPKDTLMISRTPEVTCVVVDVSQEDPEVQFNWYVDGVEVHNAKTKPREEQFNSTYRVVSVLTVLHQDWLNGKEYKCKVSNKGLPSSIEKTISKAKGQPREPQVYTLPPSQEEMTKNQVSLTCLVKGFYPSDIAVEWESNGQPENNYKTTPPVLDSDGSFFLYSRLTVDKSRWQEGNVFSCSVMHEALHNRFTQKSLSLSP
light: DIQMTQSPSSLSASVGDRVTITCKASRNIERNLAWYQQKPGQAPELLIYSASRKESGVPDRFSGSRYGTDFTLTISSLQPEDLATYYCQQYYSPPLTFGGGTKVEIKRTVAAPSVFIFPPSDEQLKSGTASVVCLLNNFYPREAKVQWKVDNALQSGNSQESVTEQDSKDSTYSLSSTLTLSKADYEKHKVYACEVTHQGLSSPVTKSFNRGEC
notes: also called homomeric antibody against FX
binding result: no binding
